Measured values taken from publication doi:10.1101/325035.

Target: sfGFP-Ensconsin (full length) (Drosophila)
Experiment: TIRF microscopy

- fluorescence intensity of K560-mScarlet on microtubules with 25 nM sfGFP-Ensc: 34200 A.U.
Substance: K560-mScarlet (truncated Kinesin-1 motor) (domain or fragment)
